For four substances, Kd results are on record in article PMC3545058.

Assay [1] has as its target EhRGS-RhoGEF (Entamoeba histolytica). Put plainly: SPR.
Assay [2] concerns the target GST-EhGα1 (Entamoeba histolytica). Description: SPR.

The term Kd denotes a measure of binding affinity in units of concentration. The substance EhGα1 (natural protein) showed a Kd in assay [1] of 5.2 µM. On to EhGα1(Q189L) (natural protein), for which the Kd in assay [1] came to 110 µM.

In assay [2], EhRGS-RhoGEF (natural protein) showed a Kd of 5.7 µM. In the case of “EhRacC(Q65L) (from UniProt Q24816 1-194) (natural protein)”, in assay [1], the Kd was found to be 34 µM.
